To fix the notation:
B1: CPEB3 Ribozyme (parent)
chain: GGGGGCCACAGCAGAAGCGUUCACGUCGCGGCCCCUGUCAGAUUCUGGUGAAUCUGCGAAUUCUGCUGU

Variants of B1 are the subject of the series. As to the kind of experiment: self-cleavage, relative activity (ratio to wild type); higher = more cleavage; co-transcriptional.
For A16U U67C, the self-cleavage came out at 0.856. With A16U C24G the figure was 0.141. A16U C24U: the self-cleavage is 0.337. For G17A C34G the value was 0.197.

As to C18A A52C, the self-cleavage came to 0.152.

With A16G C24A, the self-cleavage was found to be 0.481. With A16G C24G, the self-cleavage was found to be 0.385. A16G C24U: the self-cleavage was 0.68.

Take A16G A51U: the self-cleavage was 0.914. For G17A A40G the value was 0.344; for A16G U36G, 0.259; for A16G U36A, 0.179. For A16U U44G, the self-cleavage turned out to be 0.767. For A16G G56U the value was 0.634; for G17A U69A, 0.703.

In the case of G17U G48A, the self-cleavage was 0.748.

For the variant G17C C32G, the self-cleavage came out at 0.0951. With C18A C29A the figure was 0.127; with C18A C29U, 0.0504; with A16G U46A, 0.948. With G17U G19C the figure was 0.16. With G17C C29U the figure was 0.199. Take G17C C29G: the self-cleavage amounted to 0.931. With G17A G48U the figure was 0.614. With G17A G48A the figure was 0.611. Regarding G17U G28U, the self-cleavage was 0.134.

On to A16G A40G, for which the self-cleavage turned out to be 0.788. With A16U G48U the figure was 0.907; with A16G G41A, 0.404. With A16C U64A the figure was 0.0981. With A16C U64C the figure was 0.145. On to A16U A59C, for which the self-cleavage is 0.427. Consider A16U A59G, for which the self-cleavage amounted to 0.909. With G17U C45A the figure was 0.447; with A16G U69C, 1.08.

G17A G56A: the self-cleavage came to 0.234. With G17A G56C the figure was 0.238; with G17A G56U, 0.178. For A16U U53C, the self-cleavage was 0.66.

G17C C18G: the self-cleavage is 0.148. With G17C C18A the figure was 0.118. For A16U C57A the value was 0.293.

Consider A16G U62G, for which the self-cleavage came to 0.593. For A16C U20A the value was 0.0817; for A16C U20C, 0.125; for A16C C57A, 0.129. For A16C C57G the value was 0.0856.

Take G17U C32U: the self-cleavage was 0.514. Regarding G17U C32G, the self-cleavage was 0.135. With G17A A51U the figure was 0.433; with G17A G30C, 0.161; with A16U G31C, 0.147. For A16U G31U the value was 0.295; for G17A U38A, 0.241; for G17U U53C, 0.188. With A16U U46G the figure was 0.78; with A16U U46A, 0.866. In the case of C18A A42G, the self-cleavage was 0.208. Take A16C U69C: the self-cleavage is 0.82. For G17U G47U the value was 0.661; for A16U G17C, 0.193; for A16C G31C, 0.113. On to A16C G31A, for which the self-cleavage came to 0.0686. With A16C G31U the figure was 0.124.

For G17U U61G, the self-cleavage amounted to 0.344.

As for G17U U61C, the self-cleavage amounted to 0.186. As for A16U G65C, the self-cleavage was found to be 0.462.

On to A16U G65U, for which the self-cleavage was determined as 0.4.

Regarding G17C G37U, the self-cleavage was 0.107.

In the case of G17C U61A, the self-cleavage was determined as 0.132. For A16G G58A the value was 0.932; for A16G G58U, 0.962. As for A16C U61A, the self-cleavage worked out at 0.418. For A16C U61C the value was 0.26. For G17A C35U the value was 0.345; for G17C G41A, 0.136. With A16U G41U the figure was 0.497; with A16U G41A, 0.411; with G17C U36C, 0.118. As to A16U C45G, the self-cleavage was 0.839. With A16U C45U the figure was 0.893; with C18A C27U, 0.12; with C18A C27G, 0.112.

As for A16U G25A, the self-cleavage amounted to 0.206. Regarding A16U G25U, the self-cleavage came out at 0.134. For G17C G68U the value was 0.21. With A16C G56A the figure was 0.231; with A16C G56C, 0.131; with A16G G17C, 0.131.

On to A16U U62A, for which the self-cleavage stood at 0.74. For G17C C22U the value was 0.145; for G17A C29G, 0.749; for A16C U43C, 0.204. For A16C U43G the value was 0.198.

Regarding G17U U46G, the self-cleavage was found to be 0.599.

For the variant G17U U46A, the self-cleavage stood at 0.624.

As to G17A A59U, the self-cleavage came to 0.246.

In the case of G17A A59C, the self-cleavage turned out to be 0.308.

Take A16G U26C: the self-cleavage was 0.555. For A16G A59U the value was 0.535; for A16U C32A, 0.491. With A16G C22A, the self-cleavage amounted to 0.167. For the variant A16G C22U, the self-cleavage stood at 0.156.

For the variant A16G U43G, the self-cleavage amounted to 0.708. With G17C C66G the figure was 0.136; with G17C C66A, 0.145.

Turning to G17U C33G, the self-cleavage is 0.224.

Consider A16U G47C, for which the self-cleavage is 0.906. Take A16U G47U: the self-cleavage was determined as 0.879.

G17U G65C: the self-cleavage was 0.218.

Consider A16U A23C, for which the self-cleavage turned out to be 0.701.

With G17C G65C, the self-cleavage worked out at 0.195.

Consider G17A C45U, for which the self-cleavage was determined as 0.463. With G17C G48A the figure was 0.137; with G17A G37U, 0.146. With A16G G47C the figure was 1.02; with A16G G47A, 0.933; with A16G U49A, 0.598. With A16G U49C the figure was 0.854.

Take G17U C66A: the self-cleavage is 0.239. With G17U C66U the figure was 0.412. For G17A C33G the value was 0.188; for G17A C33A, 0.21.

Take G17C A51C: the self-cleavage was determined as 0.165. For G17U U21C the value was 0.14.

On to G17C U53C, for which the self-cleavage was 0.134. For the variant G17C U53A, the self-cleavage was found to be 0.144. For A16C U46G the value was 0.309; for A16C U46C, 0.293. For A16C G41C, the self-cleavage stood at 0.18. Consider A16C U55C, for which the self-cleavage came to 0.165. For C18A C33A the value was 0.153; for A16U A40C, 0.267; for A16U A40U, 0.415. As to G17C C33G, the self-cleavage turned out to be 0.171. For the variant G17C G50C, the self-cleavage turned out to be 0.111.

On to C18A A60C, for which the self-cleavage turned out to be 0.0911. In the case of C18A A60G, the self-cleavage worked out at 0.195. With A16U U38G the figure was 0.272; with A16C C66U, 0.203; with A16U C27A, 0.205. In the case of A16U C27U, the self-cleavage was 0.125.

Turning to A16U C27G, the self-cleavage came out at 0.115. For A16C C45G the value was 0.272.

Consider A16C C45A, for which the self-cleavage was found to be 0.264. With A16C C45U the figure was 0.339; with G17U, 0.643. With G17A the figure was 0.592; with G17C, 0.166. For G17C G47U the value was 0.149; for G17C G47A, 0.185; for G17A C63U, 0.313. A16U A52C: the self-cleavage was found to be 0.856.

Turning to A16U A52U, the self-cleavage was 0.801. For G17C C45A the value was 0.119; for G17U U38C, 0.413; for G17U A52U, 0.429. Take G17A G31A: the self-cleavage was determined as 0.158.

Consider A16U C18G, for which the self-cleavage amounted to 0.167. Consider A16U C18U, for which the self-cleavage is 0.301. For A16C G48C the value was 0.409; for G17U A42G, 0.353. For A16G C66A the value was 0.579; for A16G C18G, 0.129; for G17A A52C, 0.431. With G17C A42G the figure was 0.128; with A16G A60G, 0.663.

Source of the values: the RNAGym collection of RNA variant scans (doi:10.7554/elife.80360).
